Test results taken from publication PMC13419597, “An Acetylation-Primed SUMOylation Switch Controls RORβ Stability through a p300-SIRT1 Regulatory Axis” (Research Square, 2024).

Target: T1, His-HA-RORβ (isoform 1) (human, UniProt Q92753-1 1-459)
T1 construct: Retinoic acid receptor-related orphan receptor beta (RORβ), human, isoform 1 (RORβ1); the printed residue numbers (K11 to K459 at the C-terminus of the LBD) fit the 459-residue form; Same plasmid used in TC28a2 (RIME) and HEK293T (co-IP, IP-MS); also called HA-tagged RORβ; RORβ WT; source: TC28a2 or HEK293T, transiently transfected (pCMV6), in lysate
T1 sequence (looked up): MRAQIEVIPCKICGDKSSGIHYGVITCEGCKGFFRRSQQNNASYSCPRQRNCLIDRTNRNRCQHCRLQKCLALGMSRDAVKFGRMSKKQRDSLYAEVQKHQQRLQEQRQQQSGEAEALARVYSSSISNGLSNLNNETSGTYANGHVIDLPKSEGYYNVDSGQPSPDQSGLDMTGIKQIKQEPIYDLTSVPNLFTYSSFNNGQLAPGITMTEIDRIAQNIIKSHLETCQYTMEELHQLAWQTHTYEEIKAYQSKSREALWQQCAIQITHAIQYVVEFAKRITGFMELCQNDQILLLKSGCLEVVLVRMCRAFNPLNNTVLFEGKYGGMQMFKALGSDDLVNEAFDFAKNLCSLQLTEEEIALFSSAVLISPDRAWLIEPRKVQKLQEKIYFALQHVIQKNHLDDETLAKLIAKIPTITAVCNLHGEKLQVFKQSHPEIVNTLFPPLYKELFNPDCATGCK
Assay: affinity purification with mass spectrometry; RIME: HA-RORβ transfected in TC28a2 chondrocytes, 1% formaldehyde crosslinking in cells, nuclear lysate, anti-HA magnetic beads, HA-peptide-blocked control; also with SIRT1 activator SRT2104 against DMSO
Details: partners not purified

B1: PIAS1, endogenous in TC28a2 (enzyme, human (endogenous in TC28a2), UniProt O75925 1-651, looked up)
chain: MADSAELKQMVMSLRVSELQVLLGYAGRNKHGRKHELLTKALHLLKAGCSPAVQMKIKELYRRRFPQKIMTPADLSIPNVHSSPMPATLSPSTIPQLTYDGHPASSPLLPVSLLGPKHELELPHLTSALHPVHPDIKLQKLPFYDLLDELIKPTSLASDNSQRFRETCFAFALTPQQVQQISSSMDISGTKCDFTVQVQLRFCLSETSCPQEDHFPPNLCVKVNTKPCSLPGYLPPTKNGVEPKRPSRPINITSLVRLSTTVPNTIVVSWTAEIGRNYSMAVYLVKQLSSTVLLQRLRAKGIRNPDHSRALIKEKLTADPDSEIATTSLRVSLLCPLGKMRLTIPCRALTCSHLQCFDATLYIQMNEKKPTWVCPVCDKKAPYEHLIIDGLFMEILKYCTDCDEIQFKEDGTWAPMRSKKEVQEVSASYNGVDGCLSSTLEHQVASHHQSSNKNKKVEVIDLTIDSSSDEEEEEPSAKRTCPSLSPTSPLNNKGILSLPHQASPVSRTPSLPAVDTSYINTSLIQDYRHPFHMTPMPYDLQGLDFFPFLSGDNQHYNTSLLAAAAAAVSDDQDLLHSSRFFPYTSSQMFLDQLSAGGSTSLPTTNGSSSGSNSSLVSSNSLRESHSHTVTNRSSTDTASIFGIIPDIISLD
notes: E3 SUMO-protein ligase PIAS1, endogenous in TC28a2 human chondrocytes; source: endogenous, TC28a2 nuclear lysate
log2 fold change of PIAS1 in RORβ immunoprecipitates, SRT2104 against DMSO: ~-0.4 log2 fold change (SRT2104/DMSO)
